Tests used:
[1] = Biological activity of insulins and insulin derivatives; details: specific activity of the active compound used in the formulation
[2] = unmodified hormone, background statement; region of maximum insolubility; cited from earlier work
[3] = based on the amount of protein; cited from earlier work

Porcine proinsulin: porcine proinsulin, dissolved component of Example 2
biological activity per mg [1]: 3.3 IU/mg

insulin [reference compound]
isoelectric point [2]: 5.4

proinsulin: naturally occurring precursor of insulin, A and B chain linked by the C peptide
inherent biological activity as fraction of the activity of insulin [3]: about 1/8
isoelectric point [2]: 5.4
